# Reference: US20220162261A1 (published 2022)
# Like-named read-outs stand apart in the source and are kept apart here. Numbered stars: 1 amine (or outer) side, 2 acyl side, 3 side chain; on linkers, the order of the positions; unused ones are H or OH. Bridge positions count the residues as written; N and C are the ends. Square brackets hold non-standard residues; d marks the D form. Asp(OMe) = L-aspartic acid beta-methyl ester, COC(=O)C[C@H](N[*:1])C(=O)[*:2]; Phe(3,4-Cl2) = N[C@@H](Cc1ccc(Cl)c(Cl)c1)C(=O)O; Phe(4-tBu) = CC(C)(C)c1ccc(C[C@H](N)C(=O)O)cc1; Phe(2,4-Cl2) = N[C@@H](Cc1ccc(Cl)cc1Cl)C(=O)O; NMeR = CN[C@@H](CCCNC(=N)N)C(=O)O; hPhe = N[C@@H](CCc1ccccc1)C(=O)O; β3hE = N[C@@H](CCC(=O)O)CC(=O)O; Pen = CC(C)(S)[C@H](N)C(=O)O; βAla = NCCC(=O)O
# Tests used:
# [1] = molecular target: T1, α4β1 (R&D Systems #5668-A4) (UniProt P13612 34-970; P05556 21-728, limits assumed); test: competition ELISA vs VCAM-1
# T1 construct: bought; also called soluble α4β1
# [2] = molecular target: T2, rh integrin α4β7 (R&D Systems #5397-A30) (human, UniProt P13612 34-970; P26010 20-723); test: competition ELISA vs MAdCAM-1
# T2 construct: bought; coated on a nickel coated plate; also called immobilized α4β7; immobilized α4β7 integrin protein
# [3] = molecular target: T3, human α4β7 integrin on cells (human, UniProt P13612 34-1032; P26010 20-798); test: RPMI8866 cell adhesion to MAdCAM-1
# T3 construct: whole, on cells; also called α4β7 cell (Hu); RPMI8866 cells
# [4] = molecular target: T2, rh integrin α4β7 (R&D Systems #5397-A30); test: competition ELISA vs MAdCAM-1; remark: listed apart in the source
# [5] = molecular target: T3, human α4β7 integrin on cells; test: RPMI8866 cell adhesion to MAdCAM-1; remark: listed apart in the source
# [6] = molecular target: T4, human α4β1 integrin on cells (human, UniProt P13612 34-1032; P05556 21-798); test: Jurkat cell adhesion to VCAM-1
# T4 construct: whole, on cells; also called α4β1 cell; Jurkat cells
Binder,IC50 [1] [nM],IC50 [2] [nM],IC50 [3] [nM],IC50 [4] [nM],IC50 [5] [nM],IC50 [6] [nM]
"Ac-CRSDTLC-NH2 (disulfide 1-7 (inferred), also called peptide 195) [SEQ ID NO: 195]",2880,97,1220,–,–,–
"Ac-C[NMeR]SDTLCGEK-OH (disulfide 1-7 (inferred); also: dimer linked by DIG, attachment not given here, also called peptide 201) [SEQ ID NO: 201]",1240,1,28,–,–,–
"Ac-C[NMeR]SDTL[Pen]E[dK]-NH2 (disulfide 1-7; also: homodimer via DIG linker on D-Lys9 side chains, also called peptide 205) [SEQ ID NO: 205]",444,2.4,26,–,–,–
"Ac-CRSDTLCGE-NH2 (disulfide 1-7 (inferred), also called peptide 194) [SEQ ID NO: 194]",2020,97,590,–,–,–
"Ac-[Pen][NMeR]SDTL[Pen][Phe(4-tBu)][β3hE][dK]-NH2 (disulfide 1-7; not fully specified (residue 10); printed as (Ac Pen N-Me-R S D T L Pen F(4-tBu) b-H-E k NH2)2 IDA Alexa-488, disulfide Pen-Pen; also: homodimer: two subunits joined by IDA linker, Alexa-488 label on the linker) [SEQ ID NO: 182]",–,–,–,≤ 10,–,–
"Ac-[Pen][NMeR]SDTL[Pen][Phe(4-tBu)][β3hE][dK]-NH2 (disulfide 1-7; not fully specified (residue 10); printed as (Ac Pen N-Me-R S D T L Pen F(4-Bu) b-H-E k NH2)2 IDA Alexa-647, disulfide Pen-Pen; also: homodimer: two subunits joined by IDA linker, Alexa-647 label on the linker, F(4-Bu) as printed) [SEQ ID NO: 183]",–,–,–,≤ 10,–,–
"Ac-[Pen][NMeR]S[Asp(OMe)]TL[Pen]WE[dK]-NH2 (disulfide 1-7; also: Biotine, site of attachment not given here) [SEQ ID NO: 69]",–,–,–,> 10,> 100,–
"Ac-[Pen][NMeR]S[Asp(OMe)]TL[Pen]WE[dK]-NH2 (disulfide 1-7; not fully specified (residue 10); printed as (Ac Pen N-Me-R S D(OMe) T L Pen W E k NH2)2 DIG, disulfide Pen-Pen; also: homodimer: two subunits linked by DIG via D-Lys10 side chain) [SEQ ID NO: 73]",–,–,–,≤ 10,≤ 10,–
Ac-[Pen][NMeR]SDTL[Pen][Phe(4-tBu)]-OH (disulfide 1-7; SMILES CC(=O)N[C@@H]1C(=O)N(C)[C@@H](CCCNC(=N)N)C(=O)N[C@@H](CO)C(=O)N[C@@H](CC(=O)O)C(=O)N[C@@H]([C@@H](C)O)C(=O)N[C@@H](CC(C)C)C(=O)N[C@H](C(=O)N[C@@H](Cc2ccc(C(C)(C)C)cc2)C(=O)O)C(C)(C)SSC1(C)C) [SEQ ID NO: 151],–,–,–,> 10,> 50,–
H-[βAla][Pen][NMeR]SDTL[Pen]WE-NH2 (disulfide 2-8; SMILES CC(C)C[C@@H]1NC(=O)[C@H]([C@@H](C)O)NC(=O)[C@H](CC(=O)O)NC(=O)[C@H](CO)NC(=O)[C@H](CCCNC(=N)N)N(C)C(=O)[C@@H](NC(=O)CCN)C(C)(C)SSC(C)(C)[C@@H](C(=O)N[C@@H](Cc2c[nH]c3ccccc23)C(=O)N[C@@H](CCC(=O)O)C(N)=O)NC1=O) [SEQ ID NO: 52],–,–,–,> 10,> 100,–
"Ac-[Pen][NMeR]SDTL[Pen][hPhe][dE][dK]-NH2 (disulfide 1-7; not fully specified (residue 10); printed as (Ac Pen N-Me-R S D T L Pen HPhe e k NH2)2 DIG, disulfide Pen-Pen; also: dimer, two subunits joined by DIG linker) [SEQ ID NO: 40]",–,–,–,≤ 10,–,–
cyclo([Pen][NMeR]SDTL[Pen]WE) (disulfide 1-7; SMILES CC(C)C[C@@H]1NC(=O)[C@H]([C@@H](C)O)NC(=O)[C@H](CC(=O)O)NC(=O)[C@H](CO)NC(=O)[C@H](CCCNC(=N)N)N(C)C(=O)[C@H]2NC(=O)[C@H](CCC(=O)O)NC(=O)[C@H](Cc3c[nH]c4ccccc34)NC(=O)[C@@H](NC1=O)C(C)(C)SSC2(C)C) [SEQ ID NO: 144],–,–,–,364,> 10000,–
"Ac-[Pen][NMeR]SDTL[Pen][Phe(3,4-Cl2)]E[dK]-NH2 (disulfide 1-7; not fully specified (residue 10); printed as (Ac Pen N-Me-R S D T L Pen F(3,4-diCl) E k NH2)2 DIG, disulfide Pen-Pen; also: dimer, two subunits joined by DIG linker) [SEQ ID NO: 43]",–,–,–,≤ 10,> 10,–
Ac-[Pen][NMeR]SDTL[Pen]WEP[dK]-NH2 (disulfide 1-7; SMILES CC(=O)N[C@@H]1C(=O)N(C)[C@@H](CCCNC(=N)N)C(=O)N[C@@H](CO)C(=O)N[C@@H](CC(=O)O)C(=O)N[C@@H]([C@@H](C)O)C(=O)N[C@@H](CC(C)C)C(=O)N[C@H](C(=O)N[C@@H](Cc2c[nH]c3ccccc23)C(=O)N[C@@H](CCC(=O)O)C(=O)N2CCC[C@H]2C(=O)N[C@H](CCCCN)C(N)=O)C(C)(C)SSC1(C)C) [SEQ ID NO: 49],–,–,–,> 10,–,–
"XRSDTLXWK (Ac Pen N-Me-R S D T L Pen W k NH2; disulfide Pen-Pen, also called peptide 208) [SEQ ID NO: 208]",–,30.5,412,–,–,–
"Ac-[Pen][NMeR]SDTL[Pen][Phe(2,4-Cl2)]E[dK]-NH2 (disulfide 1-7; not fully specified (residue 10); printed as (Ac Pen N-Me-R S D T L Pen F(2,4-diCl) E k NH2)2 DIG, disulfide Pen-Pen; also: dimer, two subunits joined by DIG linker) [SEQ ID NO: 42]",–,–,–,≤ 10,≤ 10,–
"Ac-[Pen]RSDTLC[dK]-NH2 (disulfide 1-7; SMILES CC(=O)N[C@@H]1C(=O)N[C@@H](CCCNC(=N)N)C(=O)N[C@@H](CO)C(=O)N[C@@H](CC(=O)O)C(=O)N[C@@H]([C@@H](C)O)C(=O)N[C@@H](CC(C)C)C(=O)N[C@H](C(=O)N[C@H](CCCCN)C(N)=O)CSSC1(C)C, also called peptide 206) [SEQ ID NO: 206]",–,97,–,–,–,–
"Ac-[Pen]RSDTLC[dK]-NH2 (disulfide 1-7; also: homodimer via DIG linker on D-Lys8 side chains, also called peptide 207) [SEQ ID NO: 207]",–,26,49,–,–,–
XRSDTLXWE (Cyclo [Pen N-Me-R S D T L Pen W e]; disulfide Pen-Pen) [SEQ ID NO: 145],–,–,–,504,> 10000,–
"Ac-C[NMeR]SDTLCGEK-OH (disulfide 1-7 (inferred), also called peptide 199) [SEQ ID NO: 199]",> 100000,58,4690,–,–,–
"Ac-CRSDTLCGEK-NH2 (disulfide 1-7 (inferred), also called peptide 196) [SEQ ID NO: 196]",4810,87,6660,–,–,> 100000
"Ac-C[NMeR]SDTLCK-OH (disulfide 1-7 (inferred); also: dimer linked by PEG25, attachment not given here, also called peptide 200) [SEQ ID NO: 200]",16700,3,96,–,–,> 100000
Ac-C[NMeR]SDTL[Pen][dK]-NH2 (disulfide 1-7; SMILES CC(=O)N[C@H]1CSSC(C)(C)[C@@H](C(=O)N[C@H](CCCCN)C(N)=O)NC(=O)[C@H](CC(C)C)NC(=O)[C@H]([C@@H](C)O)NC(=O)[C@H](CC(=O)O)NC(=O)[C@H](CO)NC(=O)[C@H](CCCNC(=N)N)N(C)C1=O) [SEQ ID NO: 202],1620,87,11000,–,–,> 100000
H-[βAla][Pen][NMeR]SDTL[Pen]W[dE]-NH2 (disulfide 2-8; SMILES CC(C)C[C@@H]1NC(=O)[C@H]([C@@H](C)O)NC(=O)[C@H](CC(=O)O)NC(=O)[C@H](CO)NC(=O)[C@H](CCCNC(=N)N)N(C)C(=O)[C@@H](NC(=O)CCN)C(C)(C)SSC(C)(C)[C@@H](C(=O)N[C@@H](Cc2c[nH]c3ccccc23)C(=O)N[C@H](CCC(=O)O)C(N)=O)NC1=O) [SEQ ID NO: 53],–,–,–,> 10,–,–
